According to the supplement of paper PMC9112550, “Optimization of the antimicrobial peptide Bac7 by deep mutational scanning” (BMC Biology, 2022):

Tested on: Escherichia coli TOP10
Experiment: shrunken log2 fold change of peptide-encoding DNA abundance (4.5 h post-induction vs induction); higher = less antimicrobial activity (less host growth inhibition)
Settings: time post-induction: 4.5 h; library: site-saturation at positions 5, 18, 19, 20
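Also: peptides expressed intracellularly from a pBAD plasmid library in pooled LB shake-flask culture, induced with 0.3% L-arabinose, DNA abundance read by NGS, three biological replicates, DESeq2 with apeglm shrinkage.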

RRIRHRPPRLPRPRPRPGFHPRP
shrunken log2 fold change: -0.323

RRIRHRPPRLPRPRPRPGGDPRP
shrunken log2 fold change: 0.0994

RRIRHRPPRLPRPRPRPGIMPRP
shrunken log2 fold change: -0.566

RRIRHRPPRLPRPRPRPGKDPRP
shrunken log2 fold change: -0.0922

RRIRHRPPRLPRPRPRPGLAPRP
shrunken log2 fold change: 0.366

RRIRHRPPRLPRPRPRPGLHPRP
shrunken log2 fold change: -0.308

RRIRHRPPRLPRPRPRPGMLPRP
shrunken log2 fold change: -0.0926

RRIRHRPPRLPRPRPRPGNSPRP
shrunken log2 fold change: 0.0912

RRIRHRPPRLPRPRPRPGQQPRP
shrunken log2 fold change: -0.028

RRIRHRPPRLPRPRPRPGQYPRP
shrunken log2 fold change: -0.0767

RRIRHRPPRLPRPRPRPGRVPRP
shrunken log2 fold change: -0.129

RRIRHRPPRLPRPRPRPGSYPRP
shrunken log2 fold change: -0.287

RRIRHRPPRLPRPRPRPGVVPRP
shrunken log2 fold change: -0.227

RRIRHRPPRLPRPRPRPGWPPRP
shrunken log2 fold change: 0.424

RRIRHRPPRLPRPRPRPGYDPRP
shrunken log2 fold change: 0.381

RRIRHRPPRLPRPRPRPGYPPRP
shrunken log2 fold change: -0.0459

RRIRHRPPRLPRPRPRPHALPRP
shrunken log2 fold change: 0.0244

RRIRHRPPRLPRPRPRPHDHPRP
shrunken log2 fold change: -1.24

RRIRHRPPRLPRPRPRPHFEPRP
shrunken log2 fold change: 0.0715

RRIRHRPPRLPRPRPRPHFHPRP
shrunken log2 fold change: -0.648

RRIRHRPPRLPRPRPRPHFSPRP
shrunken log2 fold change: 0.0854

RRIRHRPPRLPRPRPRPHGTPRP
shrunken log2 fold change: -0.0524

RRIRHRPPRLPRPRPRPHHIPRP
shrunken log2 fold change: -1.53

RRIRHRPPRLPRPRPRPHHKPRP
shrunken log2 fold change: -0.556

RRIRHRPPRLPRPRPRPHIKPRP
shrunken log2 fold change: -0.83

RRIRHRPPRLPRPRPRPHIWPRP
shrunken log2 fold change: -0.835

RRIRHRPPRLPRPRPRPHKCPRP
shrunken log2 fold change: -0.11

RRIRHRPPRLPRPRPRPHLKPRP
shrunken log2 fold change: -0.124

RRIRHRPPRLPRPRPRPHMMPRP
shrunken log2 fold change: -0.321

RRIRHRPPRLPRPRPRPHPAPRP
shrunken log2 fold change: 0.21

RRIRHRPPRLPRPRPRPHPIPRP
shrunken log2 fold change: -0.107

RRIRHRPPRLPRPRPRPHPVPRP
shrunken log2 fold change: -0.248

RRIRHRPPRLPRPRPRPHQTPRP
shrunken log2 fold change: -0.0667

RRIRHRPPRLPRPRPRPHRSPRP
shrunken log2 fold change: -0.0796

RRIRHRPPRLPRPRPRPHSFPRP
shrunken log2 fold change: -0.0282

RRIRHRPPRLPRPRPRPHSMPRP
shrunken log2 fold change: -0.337

RRIRHRPPRLPRPRPRPHVDPRP
shrunken log2 fold change: 0.0392

RRIRHRPPRLPRPRPRPHVPPRP
shrunken log2 fold change: 0.084

RRIRHRPPRLPRPRPRPHWNPRP
shrunken log2 fold change: -0.407

RRIRHRPPRLPRPRPRPHYTPRP
shrunken log2 fold change: -0.903

RRIRHRPPRLPRPRPRPIANPRP
shrunken log2 fold change: -0.24

RRIRHRPPRLPRPRPRPIARPRP
shrunken log2 fold change: 0.116

RRIRHRPPRLPRPRPRPICQPRP
shrunken log2 fold change: -0.113

RRIRHRPPRLPRPRPRPIDEPRP
shrunken log2 fold change: 0.142

RRIRHRPPRLPRPRPRPIDHPRP
shrunken log2 fold change: -0.267

RRIRHRPPRLPRPRPRPIDYPRP
shrunken log2 fold change: -0.017

RRIRHRPPRLPRPRPRPIEIPRP
shrunken log2 fold change: -0.161

RRIRHRPPRLPRPRPRPIERPRP
shrunken log2 fold change: 0.00211

RRIRHRPPRLPRPRPRPIFEPRP
shrunken log2 fold change: -0.0251

RRIRHRPPRLPRPRPRPIHNPRP
shrunken log2 fold change: -0.545

RRIRHRPPRLPRPRPRPIICPRP
shrunken log2 fold change: -0.168

RRIRHRPPRLPRPRPRPIIFPRP
shrunken log2 fold change: -0.249

RRIRHRPPRLPRPRPRPIILPRP
shrunken log2 fold change: -0.113

RRIRHRPPRLPRPRPRPIIQPRP
shrunken log2 fold change: -0.348

RRIRHRPPRLPRPRPRPIITPRP
shrunken log2 fold change: -1.46

RRIRHRPPRLPRPRPRPIMAPRP
shrunken log2 fold change: -0.383

RRIRHRPPRLPRPRPRPIMCPRP
shrunken log2 fold change: -0.245

RRIRHRPPRLPRPRPRPIMIPRP
shrunken log2 fold change: -0.192

RRIRHRPPRLPRPRPRPINLPRP
shrunken log2 fold change: -0.0477

RRIRHRPPRLPRPRPRPINPPRP
shrunken log2 fold change: -0.0815

RRIRHRPPRLPRPRPRPIPMPRP
shrunken log2 fold change: -0.0582

RRIRHRPPRLPRPRPRPIQSPRP
shrunken log2 fold change: -0.0918

RRIRHRPPRLPRPRPRPIRMPRP
shrunken log2 fold change: -0.217

RRIRHRPPRLPRPRPRPIRSPRP
shrunken log2 fold change: -0.0062

RRIRHRPPRLPRPRPRPIRTPRP
shrunken log2 fold change: -0.0747

RRIRHRPPRLPRPRPRPISCPRP
shrunken log2 fold change: -0.0318

RRIRHRPPRLPRPRPRPITLPRP
shrunken log2 fold change: 0.0184

RRIRHRPPRLPRPRPRPITVPRP
shrunken log2 fold change: -0.0184

RRIRHRPPRLPRPRPRPIVEPRP
shrunken log2 fold change: -0.133

RRIRHRPPRLPRPRPRPIWFPRP
shrunken log2 fold change: 1.65

RRIRHRPPRLPRPRPRPIWIPRP
shrunken log2 fold change: 0.0409

RRIRHRPPRLPRPRPRPIYPPRP
shrunken log2 fold change: -0.158

RRIRHRPPRLPRPRPRPKDIPRP
shrunken log2 fold change: -0.504

RRIRHRPPRLPRPRPRPKDQPRP
shrunken log2 fold change: -0.172

RRIRHRPPRLPRPRPRPKDYPRP
shrunken log2 fold change: 0.0577

RRIRHRPPRLPRPRPRPKFFPRP
shrunken log2 fold change: -0.0649

RRIRHRPPRLPRPRPRPKFQPRP
shrunken log2 fold change: -0.0213

RRIRHRPPRLPRPRPRPKGAPRP
shrunken log2 fold change: -0.011

RRIRHRPPRLPRPRPRPKGIPRP
shrunken log2 fold change: -0.092

RRIRHRPPRLPRPRPRPKHLPRP
shrunken log2 fold change: -0.237

RRIRHRPPRLPRPRPRPKHMPRP
shrunken log2 fold change: -0.0234

RRIRHRPPRLPRPRPRPKIAPRP
shrunken log2 fold change: 0.00548

RRIRHRPPRLPRPRPRPKKKPRP
shrunken log2 fold change: -0.0281

RRIRHRPPRLPRPRPRPKKTPRP
shrunken log2 fold change: 0.0065

RRIRHRPPRLPRPRPRPKLCPRP
shrunken log2 fold change: -0.114

RRIRHRPPRLPRPRPRPKLEPRP
shrunken log2 fold change: -0.0604

RRIRHRPPRLPRPRPRPKNRPRP
shrunken log2 fold change: -0.227

RRIRHRPPRLPRPRPRPKQYPRP
shrunken log2 fold change: -0.439

RRIRHRPPRLPRPRPRPKRIPRP
shrunken log2 fold change: -0.0337

RRIRHRPPRLPRPRPRPKTHPRP
shrunken log2 fold change: -0.314

RRIRHRPPRLPRPRPRPKVAPRP
shrunken log2 fold change: -0.049

RRIRHRPPRLPRPRPRPLAGPRP
shrunken log2 fold change: 0.312

RRIRHRPPRLPRPRPRPLEMPRP
shrunken log2 fold change: -0.236

RRIRHRPPRLPRPRPRPLFFPRP
shrunken log2 fold change: -0.171

RRIRHRPPRLPRPRPRPLGMPRP
shrunken log2 fold change: -0.227

RRIRHRPPRLPRPRPRPLGRPRP
shrunken log2 fold change: 0.218

RRIRHRPPRLPRPRPRPLGTPRP
shrunken log2 fold change: -0.129

RRIRHRPPRLPRPRPRPLHNPRP
shrunken log2 fold change: -0.602

RRIRHRPPRLPRPRPRPLIPPRP
shrunken log2 fold change: -0.244

RRIRHRPPRLPRPRPRPLIYPRP
shrunken log2 fold change: -0.569

RRIRHRPPRLPRPRPRPLMWPRP
shrunken log2 fold change: -0.218

RRIRHRPPRLPRPRPRPLMYPRP
shrunken log2 fold change: -0.711

RRIRHRPPRLPRPRPRPLNHPRP
shrunken log2 fold change: -0.785

RRIRHRPPRLPRPRPRPLRLPRP
shrunken log2 fold change: 0.199

RRIRHRPPRLPRPRPRPLSNPRP
shrunken log2 fold change: -0.174

RRIRHRPPRLPRPRPRPLSTPRP
shrunken log2 fold change: -0.0859

RRIRHRPPRLPRPRPRPLTAPRP
shrunken log2 fold change: -0.0931

RRIRHRPPRLPRPRPRPLVHPRP
shrunken log2 fold change: -0.238

RRIRHRPPRLPRPRPRPLWGPRP
shrunken log2 fold change: -0.107

RRIRHRPPRLPRPRPRPLWMPRP
shrunken log2 fold change: -0.138

RRIRHRPPRLPRPRPRPMCFPRP
shrunken log2 fold change: -0.574

RRIRHRPPRLPRPRPRPMDFPRP
shrunken log2 fold change: 3.65

RRIRHRPPRLPRPRPRPMDLPRP
shrunken log2 fold change: 0.00707

RRIRHRPPRLPRPRPRPMFAPRP
shrunken log2 fold change: -0.245

RRIRHRPPRLPRPRPRPMFCPRP
shrunken log2 fold change: 0.0621

RRIRHRPPRLPRPRPRPMFGPRP
shrunken log2 fold change: -0.000925

RRIRHRPPRLPRPRPRPMGGPRP
shrunken log2 fold change: 0.0348

RRIRHRPPRLPRPRPRPMIKPRP
shrunken log2 fold change: -0.0726

RRIRHRPPRLPRPRPRPMKEPRP
shrunken log2 fold change: 0.0572

RRIRHRPPRLPRPRPRPMLDPRP
shrunken log2 fold change: 0.0917

RRIRHRPPRLPRPRPRPMLGPRP
shrunken log2 fold change: -0.00277

RRIRHRPPRLPRPRPRPMLRPRP
shrunken log2 fold change: -0.0571

RRIRHRPPRLPRPRPRPMMPPRP
shrunken log2 fold change: -0.365

RRIRHRPPRLPRPRPRPMMWPRP
shrunken log2 fold change: -0.0542

RRIRHRPPRLPRPRPRPMNYPRP
shrunken log2 fold change: -0.316

RRIRHRPPRLPRPRPRPMPTPRP
shrunken log2 fold change: 0.0549

RRIRHRPPRLPRPRPRPMRQPRP
shrunken log2 fold change: 0.143

RRIRHRPPRLPRPRPRPMSNPRP
shrunken log2 fold change: 0.00049

RRIRHRPPRLPRPRPRPMTGPRP
shrunken log2 fold change: -0.218

RRIRHRPPRLPRPRPRPMTIPRP
shrunken log2 fold change: -0.081

RRIRHRPPRLPRPRPRPMVLPRP
shrunken log2 fold change: -0.0459

RRIRHRPPRLPRPRPRPMWHPRP
shrunken log2 fold change: -0.152

RRIRHRPPRLPRPRPRPNAYPRP
shrunken log2 fold change: -0.219

RRIRHRPPRLPRPRPRPNCFPRP
shrunken log2 fold change: 0.0486

RRIRHRPPRLPRPRPRPNCSPRP
shrunken log2 fold change: 0.0841

RRIRHRPPRLPRPRPRPNCWPRP
shrunken log2 fold change: 0.612

RRIRHRPPRLPRPRPRPNDHPRP
shrunken log2 fold change: -0.499

RRIRHRPPRLPRPRPRPNDQPRP
shrunken log2 fold change: -0.169

RRIRHRPPRLPRPRPRPNEEPRP
shrunken log2 fold change: -0.00146

RRIRHRPPRLPRPRPRPNFEPRP
shrunken log2 fold change: 0.00825

RRIRHRPPRLPRPRPRPNFGPRP
shrunken log2 fold change: 0.00709

RRIRHRPPRLPRPRPRPNHEPRP
shrunken log2 fold change: -0.493

RRIRHRPPRLPRPRPRPNHKPRP
shrunken log2 fold change: -0.973

RRIRHRPPRLPRPRPRPNHPPRP
shrunken log2 fold change: -0.254

RRIRHRPPRLPRPRPRPNKRPRP
shrunken log2 fold change: -0.198

RRIRHRPPRLPRPRPRPNKTPRP
shrunken log2 fold change: -0.0741

RRIRHRPPRLPRPRPRPNKVPRP
shrunken log2 fold change: -0.238

RRIRHRPPRLPRPRPRPNLAPRP
shrunken log2 fold change: 0.0843

RRIRHRPPRLPRPRPRPNLNPRP
shrunken log2 fold change: -0.786

RRIRHRPPRLPRPRPRPNMPPRP
shrunken log2 fold change: 0.0144
